# Source: patent US9315862B2, “Aptamer regulated nucleic acids and uses thereof” (California Institute of Technology, priority 2004, dated 2016)
# Numbering of substitutions follows the chain as printed.
# B1: s9: tetracycline-responsive Venus (YFP) regulator antiswitch, SEQ ID NO: 9 (nucleic acid)
# chain: UUGCUCACCAUGGUCCUCACCAUGGUGAGCAAAAAACAUACCAGAUCGCCACCCGCGCUUUAAUCUGGAGAGGUGAAGAAUACGACCACCUUUGCUCAC
# modifications: chemistry not given here
# B2: s5: antiswitch with aptamer domain having 10-fold lower affinity to theophylline than s1, SEQ ID NO: 5 (nucleic acid)
# chain: ACCUUUAGACAUUUACCUCUAAAUGUCUAAAGGUGAUACCACGCGAAAGCGCCUUGGCAGCACCUUUAG
# modifications: RNA, backbone not given here
# B3: s6: destabilized modified theophylline aptamer antiswitch based on s5, SEQ ID NO: 6 (nucleic acid)
# chain: B2 chain with A22C
# modifications: RNA, backbone not given here
# B4: s3: stabilized antiswitch construct, antisense stem five nucleotides longer than s1, SEQ ID NO: 3 (nucleic acid)
# chain: ACCUUUAGACAUUUAAUUAACCUCUUAAUUAAAUGUCUAAAGGUGAAGAUACCAGCAUCGUCUUGAUGCCCUUGGCAGCUUCACCUUUAG
# modifications: RNA, backbone not given here
# B5: s1: theophylline-responsive "off" antiswitch RNA targeting GFP mRNA, SEQ ID NO: 1 (nucleic acid)
# chain: ACCUUUAGACAUUUACCUCUAAAUGUCUAAAGGUGAUACCAGCAUCGUCUUGAUGCCCUUGGCAGCACCUUUAG
# modifications: chemistry not given here
# B6: s4: destabilized antiswitch construct with altered loop sequence (U18 to C), SEQ ID NO: 4 (nucleic acid)
# chain: B5 chain with U18C, A22C
# modifications: RNA, backbone not given here
# B7: s2: destabilized antiswitch construct based on s1 (A21 to C), SEQ ID NO: 2 (nucleic acid)
# chain: B5 chain with A22C
# modifications: RNA, backbone not given here
# What was measured:
# theophylline aptamer = conditions: cited from earlier work
# E. coli membrane = conditions: cited from earlier work
# [1] = test system: target mRNA encoding green fluorescent protein (GFP); assay: Protein expression assay: in vivo GFP regulation activity of antiswitches in yeast cells; type: cell-based, S. cerevisiae; conditions: for theophylline concentration at which the antiswitch switches GFP expression (inhibits expression / decreases to background levels): theophylline concentration in the media, s8 is an "on" switch; for switching theophylline concentration compared with s1-4: modified lower-affinity theophylline aptamer
# Procedure: (§1) Yeast cells were inoculated into synthetic complete media supplemented with the appropriate drop out solution and sugar source (2% raffinose, 1% sucrose) and grown overnight at 30° C. Cells were back diluted into fresh media to an OD600 of 0.1 and grown at 30° C. For assaying antiswitch activity, this fresh media contained appropriate concentrations of theophylline (Sigma), caffeine (Sigma), tetracycline (Sigma), or water (negative control) and expression was induced to a final concentration of 2% galactose, or an equivalent volume of water was added (noninduced control). After growing for three hours, the GFP and Venus levels were assayed on a Safire (Tecan) fluorescent plate reader set to the appropriate excitation (GFP-485 nm; Venus-515 nm) and emission (GFP-515 nm; Venus-[…]) wavelengths. For assaying the antiswitch temporal response, cells were back diluted into fresh media containing 2% galactose. After growing in inducing media for three hours, theophylline or water was added and fluorescence was monitored over time. Fluorescence was normalized for cell number by dividing relative fluorescence units (RFUs) by the OD600 of the culture.
# The expression of antiswitches in S. cerevisiae was accomplished using a novel non-coding RNA (ncRNA) expression construct similar to a previously described system (Taira et al., Nucleic Acids Res 19, 5125-30 (1991)) (see FIG. 6). Briefly, the RNA to be expressed is cloned between two hammerhead ribozymes known to self-cleave in vivo (Samarsky et al., Proc Natl Acad Sci USA 96, 6609-14 (1999)). This dual hammerhead construct can be placed under the control of Pol II promoters, and when transcribed the flanking hammerhead ribozymes cleave out from the desired RNA at an efficiency greater than 99% (see FIG. 11). The construct enables creation of ncRNAs with defined 5′ and 3′ ends that are free of potentially interfering flanking sequences. Antiswitch s1 was expressed in this construct under control of a galactose-inducible (GAL1) promoter in yeast cells. A plasmid containing a yeast enhanced GFP (yEGFP) (Mateus et al., Yeast 16, 1313-23 (2000)) under the control of a GAL1 promoter was transformed into the same cells (FIG. 1a).
# [2] = test system: yellow fluorescent variant protein (Venus) mRNA target; assay: Protein expression assay: in vivo Venus (YFP) regulation by antiswitches in yeast cells; type: cell-based, S. cerevisiae
# Procedure: as §1
# To illustrate this we introduced into cells two switches each responsive to a different effector molecule and each regulating the protein expression of a different mRNA target: s1, a theophylline responsive GFP regulator, and s9 (see FIG. 9), a tetracycline responsive yellow fluorescent variant protein (Venus) (Nagai et al., Nat Biotechnol 20, 87-90 (2002)) regulator (FIG. 5a). Changes in the targeting capabilities of these molecules were made by swapping out the antisense stem and switching aptamer stem while keeping the remainder of the aptamer module the same. Concurrent expression of these two antiswitches with a plasmid carrying both GFP and Venus allowed for an assay of the simultaneous regulation of gene expression by modular antiswitch design. […] Furthermore, the addition of both ligands decreased expression of both GFP and Venus. […]
# GFP mRNA = assay: RNA quantification by qRT-PCR of antiswitch s1 and target mRNA; type: cell-based, S. cerevisiae
# Procedure: Yeast cells were grown according to methods detailed in protein expression assays. Total RNA was extracted using standard acid phenol extraction procedures (Caponigro et al., Mol Cell Biol 13, 5141-8 (1993)). Briefly, cells were pelleted and frozen in liquid nitrogen. Pellets were resuspended in a 50 mM NaOAc (pH 5.2) and 10 mM EDTA buffer. Cells were lysed by the addition of SDS to a final concentration of 1.6% and equal volume of acid phenol. Solutions were kept at 65° C. with intermittent vortexing for 10 minutes. Following cooling on ice, the aqueous phase was extracted and further extraction was carried out with an equal volume of chloroform. RNA samples were ethanol precipitated and resuspended in water. Total RNA was quantified by OD260 readings. RNA samples were DNased (Invitrogen) according to manufacturer's instructions. cDNA was synthesized using gene-specific primers (see FIG. 13) and Superscript III reverse transciptase (Invitrogen) according to the manufacturer's instructions. qRT-PCR was performed on this cDNA using an iCycler iQ system (BioRAD). Samples were prepared using the iQ SYBR green supermix and primer pairs specific for different templates (see FIG. 13) on dilution series of the cDNA, according to the manufacturer's instructions. Data was analyzed using the iCycler iQ software.
# [3] = Structural probing of antiswitch by nuclease mapping (RNase T1) with theophylline alone
# Procedure: Antiswitch and target sequences were PCR amplified with primers containing a T7 polymerase promoter. RNA was transcribed using Ampliscribe T7 transcription kits (Epicentre) according to manufacture's instructions, except that transcription was carried out at 42° C. and for gel-shift assays antiswitches were radiolabeled by the addition of [α-^32P]-UTP to the transcription mix. The RNA was purified on a 15% denaturing gel, eluted, ethanol precipitated, and resuspended in water. RNA was quantified by OD260 readings. For nuclease mapping, antiswitches were 5′ end labeled with fluorescein (Molecular Probes) by incubating 25 μg of RNA with phosphate reactive label, dissolved in DMSO (Sigma), in labeling buffer (0.12 M methylimidazole pH 9.0, 0.16 M EDAC) for four hours, according to manufacturer's instructions. Labeled RNA was purified by ethanol precipitation and run on a 12% denaturing gel. Fluorescent bands were excised from the gel, eluted into water for three hours at 37° C., and ethanol precipitated.
# For nuclease mapping, fluorescein-labeled antiswitch RNA was resuspended in buffer (50 mM Tris-HCl pH 8.0, 100 mM NaCl, 5 mM MgCl2), denatured at 65° C. for three minutes, and allowed to slow cool to room temperature. Antiswitch RNA was incubated with varying concentrations of theophylline at room temperature for 15 minutes. RNase T1 (Ambion) was added to the antiswitch-ligand mixture and incubated at room temperature for 15 minutes. Cleavage products were visualized using laser-induced fluorescence capillary electrophoresis on a P/ACE MDQ machine (Beckman) using a single-stranded nucleic acid analysis kit (Beckman) according to manufacturer's instructions.
# [4] = cells with s1 and s9, plasmid carrying both GFP and Venus
# [5] = theophylline and tetracycline, cells with s1 and s9
molecule,measurement,setting,value
Cn1c(=O)c2c(ncn2C)n(C)c1=O [caffeine],binding to the theophylline aptamer,theophylline aptamer,does not bind
Cn1c(=O)c2[nH]cnc2n(C)c1=O [theophylline],Kd,theophylline aptamer,290 nM
same,drop in theophylline concentration across the E. coli membrane,E. coli membrane,"> 1,000 fold"
"s8: redesigned ""on"" antiswitch regulator responsive to theophylline, SEQ ID NO: 8 (ACCUUUAGACAUUUAGAUACCAGCAUCGUCUUGAUGCCCUUGGCAGCUAAAUGUC; RNA, backbone not given here)",theophylline concentration at which the antiswitch switches GFP expression (inhibits expression / decreases to background levels),[1],around 1 mM
B1,Venus expression on addition of tetracycline,[2]; [4],decreased
same,Venus expression on addition of both ligands,[2]; [5],decreased
same,GFP expression on addition of tetracycline,[1]; [4],not affecting
B2,Kd of aptamer domain for theophylline relative to the aptamer used in s1 (higher Kd / lower affinity),theophylline aptamer,~10 fold
same,"theophylline concentration required to switch, relative to s1",[1],~10 fold
same,switching theophylline concentration compared with s1-4,[1],higher theophylline concentrations
B3,switching theophylline concentration compared with s1-4,[1],higher theophylline concentrations
B4,"theophylline concentration required to switch, relative to s1",[1],roughly 1.5 fold
same,"theophylline concentration required to switch, relative to s2",[1],~6 fold
same,"decrease (inhibition) of GFP expression from control/full expression levels in the ""off"" state",[1]; absence of theophylline,10%
same,theophylline concentration at which the antiswitch switches GFP expression (inhibits expression / decreases to background levels),[1],approximately 1.25 mM
B5,Venus expression on addition of theophylline,[2]; [4],unaffected
same,relative levels of target transcript,"GFP mRNA; cells harboring s1, absence versus high levels of theophylline",did not change significantly
same,steady-state relative level of antiswitch versus target levels,GFP mRNA; same promoter for antiswitch and target,"approximately 1,000 fold"
same,GFP expression on addition of caffeine,[1]; caffeine as negative control effector,does not change expression levels
same,GFP expression on addition of theophylline,[1]; [4],decreased
same,GFP expression on addition of both ligands,[1]; [5],decreased
same,antisense domain (peak 1) RNase T1 cleavage,[3]; 2 mM theophylline,appearance of peak 1
same,switching aptamer stem (peak 2) RNase T1 cleavage,[3]; 2 mM theophylline,absent
same,switching aptamer stem (peak 2) RNase T1 cleavage,[3]; absence of theophylline and 200 μM theophylline,cleaved
B6,theophylline concentration at which the antiswitch switches GFP expression (inhibits expression / decreases to background levels),[1],0.1 mM
B7,theophylline concentration at which the antiswitch switches GFP expression (inhibits expression / decreases to background levels),[1],greater than 0.2 mM
